Measurements as given in the DeepSol protein solubility set.

Test: soluble on expression in E. coli; label from the status in PepcDB or PDB records

Sequence	soluble on expression in E. coli
MGSDKIHHHHHHMSSSDNILERLLFTIHKRLVSIPIAPNLRKNVAPIVNDWPSRPEKNTRPSTTVHLPAVDYLEQALKIGETSGDREICPMIRLLAPELSWNFDYAPHPAFPYLDEKVAFTQFVGPNDLWVSSHLAIGLTLIAPETHYPAHCHPATEIYLPLAGTGSWSMGNYYYFPRKPGELIFHPSGITHATQAQEEPMLALYIWHGDICSPSEWLPDECE	not soluble
MGSDKIHHHHHHMSTARLVLLGGFLGAGKTTTMIKSALKLEKEGYRVAIVTNDQGKELIDTELARANGLESKEVTGGCFCCQFDDLYNNLNTLMKEKQPDVIIAEAVGSCTDLAATVIQPLKQYYADKFKTAPLTIVVEPARLLHELNLDENTKPFFSQSVSYIFEKQLAEADIIALNKVDRYSEEEIAKLKAYLQQRYPQTIIQTFSAERGDNLEALTHTWLTTDLGGDKVLDIDYELYAEGEAQLAWMNILGDIKAEQDINPREWAEKLLDNLNKHFIREKMAIAHLKVHVGFEGGYVKASMVQTGDAPTFTVENVKEGKEFRIVLNIRIEATPAILNLVVADSIGAINKELGSNWSETYNECFSPLPPKPVHRLYETV	not soluble
MGSDKIHHHHHHMSTELRRVTYGNHGVARLTPAPDKPGTYMGMPKFSKAVKGELNLSVQRKNMRNATMTIRNKRAMRVSESPDWQDLRDAAESIKNRVGRHLDHYLVEAEKNLTANGVHVHWARDGEEANRIVAQIAKDKGVDEVVKIKSITSQETDLNEYLEEQGIAAWETDLAELIVQLGHDRPSHIVVPAIHRNRAEVREIFLHEMKNYGRPAPEDISENPPELTNAARLHLREKFLRAEMAVSGGNFVLADTGSLVIVESEGNGRMCLTLPDTLVSIVGIEKVLPSFDDLEVFLKLLPRSATGERMNPYNSVWSGVTDGDGPQEQHVIFLDNGRTDVLADTLGREVLRCIRCASCINICPVYERAGGHAYGSVYPGPIGAVLNPQLRGVEHPVDRGLPYACSLCGACNEVCPVKIPFTDILLKLRNKVVKSEKADRIPQDYEVAGEMGLMKTASWAFSDHKHFEAIQVGSRGVGRVLRGKKMGPVPVPVAERWLKYRDVDAPPADTFRTWWKKNREAQR	not soluble
MGSDKIHHHHHHMSTNHGANLYSLSSKYGFSKEEFMDFSSNINPFGTSSLAKQYIVNNIDMVSMYPDPDYIDLKTSISNYCKCSIDNIVLGSGATELISSFIHTINPKQALLLSPAYSEYEKELSKINCSIEKYFAKEEDNFHINLENLIKTINAKDYDLVVICNPSNPTGFAFTKVEVREILKNTDSFLMIDETYVEFTDTDTYSCTQLVDDYSNLFVIRGTSKFFSTPGIRLGYGLISNTNVKNEINKNLDLWNINIIASKMGEIMFSDLDFISNTISLMNTERDYLLKELKNIKSLDIYNTKGNFILCKIKTKELTAKSLREQLLPQKIIIRDCCSFKGLDEYFFRVCILKPNENKLLISSLKSIFK	not soluble
MGSDKIHHHHHHMSTRMVTLHGRIVLRASIELLTGLHIGGAAGGLEIGGLDKPVIRNPITNQPYIPGSSLKGKLRSLMEKVYGAPQTFRINEGVFIHVPTNPEEYQRYYQIAGVFGTLPNHKQLTIDVPTRLIVRDVPLTRESEQELRRLRTDLPYTEIKWEAAIDRVTSAAAPRQIERVPAGAVFGPAEVVYSLYVGNGEQLSDVIRLFGSVYEAFTYLEDDYLGGMGSRGNGQVRLRDITVLARRLESGRYGELTTIREAKELRELDRNGLLEELQRFFNPA	not soluble
MGSDKIHHHHHHMSTSAPINRRLTKKIYVGDVAIGGDAPISVQSMTNTDTCDVAATVAQIERCVEAGADLMRVSTPTMDTVKAFGEIRKLVSVPLIADVHFDHKIALAVAAAGADCLRINPGNIGSDAKVREVVACAKHYNIPIRIGVNAGSLEKDIQRKYKEPNGAAMLESAMRHIDILERLNFDQYKVSVKASNVFLTMDAYRLISAQIDNPLHLGVTEAGVYRTGSVKSAIALGGLLLDGIGDTIRISLAAEPEEEIKIGFDILKSLNIRSNGVNFIACPSCSRQEFDVIRVMTALESRLEDIREPMNLSVIGCKVNGPGEAKEADIGIVGAAPKSLVYRMGEKSHLIDTDNLVDEIEGMVRAHAEELAKKRENEIIRVR	not soluble
MGSDKIHHHHHHMSVETKLTIDKEYVQSFSDARNEPQWFKDIRLKGFELVETLELPKPDKTKITSWNFTNFDHKLPEVSPVASIDELRDEVKGLIGEASDTQNLLVQRDATVVYSKLDEALKAKGVIFTDLLTAVKEHGDLVEKYYMKDAVKVDENRLTALHAALVNGGTFIYVPRNVEIEVPLQSVFWFDTEKAGLFNHVIIVAEDNSSITYVENYASFGSEEAVANIVVEVFAGANAKVSFGAVDNLAAGVTTYVVRRAHVGRDSRVEWALGQMNDGNTVSENTTHLLGDNSWADTKTVSVGRGEQKQNFTTQIFHHGKHSEGYILKHGVMREAATSIFNGISKIEHGATKSHGEQTERVLMLSEKARGDANPILLIDEDDVTAGHAASVGKIDPIQMFYLMSRGISRAEAERLVIHGFLAPVVGQLPIESVKERLVEAIERKVK	not soluble
MGSDKIHHHHHHMSVISENVKYFRKQLGFTQEQLAQRIGIKRSLLGAYEEGRAEPGLETLTILARLFETTVDALISETLSDPGKRKEAMSKDIEGKKLRVLAITVDKDDKENIQLVPEKAAAGYLNGYADPEYVAELPQFYLPIFSGSGTYRAFEIKGDSMLPLASGSLIIGQYVDNWSSVKDQQTYILVTATEGIVYKRIYNNIKKNETLKLVSDNPAYEPYDIHVENVIEIWESKAYISTDFPKPDMSVEKLTAIVSGLQKQMNKLSND	not soluble
MGSDKIHHHHHHMSWHNKVVWNEGLFLLPQLFQQQERYFEYFAHKRAAVLSPFFWGFSRYEIDQESLSFGKLVFKSGAGIFPDGTPFDVPGHTPPPPPLTIAAEHQDQVIYLAVPLRLPNTEETAFDEQAGSLARYSAFEIELRDSNAIGQGPKPVQLANMRLRLLPEKELTQSWIGIALTRVKTLHADGSVALYDGDHIPPVSQYGANPLLREWATQLHGLAKLRADALATRLSGSDGRAGAAAEVADYLLLQVLNRYEPLLEHICRIREMPPVTLYRELSMLAGELSTFVRPQTRRPRPTPGYDHAQLYASIRPLVDEVHYLLNQVLIRGAQPIPLTEQPHGIRVATMLPSELAGYSSLVLAVGAQMSPDVLQQQFASQTKISHPQRLPELIRSHLPGMTMIPLPVPPRQIPFNSSYIYYELSRTGPFWEQIAQQGGLAMHIAGHFPELKLELWGVRHK	not soluble
MGSDKIHHHHHHMSYTTNKQPQGYPYFVTSKLREDMIGELVAINDYSFIISNSNIKEINDVLYHIRQEEHNHYGMLLELLRKYDPMEMDAYLRVIAHTTLTPVKEYLTVNSGITDKLLLNYLREGAKGELEAIILYEQHLAEIPYSDIRETLQKIVYEEKEHLEELTLVLINYDKDKYGSIKK	not soluble
MGSDKIHHHHHHMTAFSFLGDKYHDHDLFLETLKYALNCEINDLRPEDFPEIRKLPDLVVIGRWNLLDDETPWLKEGDIKILVDYVRSGGKLFVWHSGLARFPESYNGLVGGRFIHHPPQKKVRYYGKDIEFELVDEHYFVDLYSDVEIFLWSESDDGTSIAGWRRRYHNGKILALTPAHSEGLKDQVFRDFLKKVLNTFVNQTSW	not soluble
MGSDKIHHHHHHMTAKTFELGPGYTISRVIRGGWQLAGGHGAIDRSQAVTDLIATFDAGIWTYDCADIYTGVEELIGAARLRLASERGLDVAAKMKVHTKLVPDLERLATISRDYIRGIVEQSLRRLKTERLDLVQFHWWDYDQPRYVEAMGWLDELRREGKVRNLGTTNFDTPRLAEILAAGIPLVSQQLQYSVLDQRPAHSLAELAAKNGVSFLCYGSVAGGFLSDKWLGVAEPATPLENRSLVKYKLIIDDFGGWDLFQQLLQALKAVGDRHGVDIATIASAWVLKQPRVAAVIVGARNQAHALANARIMDVALDADDRAKIAAVIAQSQGPLGDVYTLERDRHGRHGSIMHYNLNAGRT	not soluble
MGSDKIHHHHHHMTANEKKDLAHARVSASDGADAWVRFTVAGKRFDMPVVINASTRSLGASIIVNRMLSRRAPNDARPLMLVTQHITSRMADDLIAKGIPFLDTAGNAYLHEPEATIMIVGRDKPALNLKNPTSRSTTPKGLRVTFALLTQPGLVHAPYRTIADRSAVALNTVNLAMDDLIYRGLVVHKGARRVIADRRRLIEEWASLFPTRLRPKLSPCRFTSWTKESNWWSRPEILDIDARLGGEAGADILTHEIKPASLTIYSHRGITPRLMLNGMLRPDDRGNVEVLETFWPAKAEEGWNLPHREVVHPLLIYSDLITSGDDRNRAVAQTIYDRYLAKERA	not soluble
MGSDKIHHHHHHMTASLLTFAKGGVHPPESKEITEHLAIEKMPLPAQVEIPLLQHFGAPCQPLVNKKDRVEEGDLIGQVQGLGANVHASITGTVTNVGTSIGPTSLNIPSVTIDRDTEAPDKIYTPSDWRGLSPQELLQKIKDGGIVGIGGAGFPAHVKLSPPPDAKVDTLVLNGAECEPYLTCDHRVMLEKPEEVVEGAKILLHVLGIKDCYIGVESNKNDAIDALRKTIEQQKLDGVKIQVSPLKVKYPQGSEKQLIESTTGRKVPGGGLPFDVGVIVQNVGTAKAVFDAVVLNKPLYEKVITISGRGISRPANLQVRIGTRIRDIVEYLGGTKADLAKIVMGGPMMGFAVSSLDIPVTKTCSGILFLTRDEIDEQPYGPCIRCGWCVEACPMGLSPNEIGLYVEAGRAADTAPFGVFDCFECGSCAFVCPAKRPLVQFIRLAKQKARK	not soluble
MGSDKIHHHHHHMTDAVEILGAERSGRWVVTCDHACNRVPDDVAGGDLGLPPADMARHIAYDVGALGVARAMGEALNGPVVTSRFSRLVIDPNRGEDDPTLLMQIYDGSIIPANRGASQAEIDRRLDRFHRPYHRALAHVIAQRDDPIVVAIHSFTPQLIGRAPRPWHVSVLYAGDTRLPYPLLARLRDEDDLCVGDNEPYSGHLPGDALDRHGVQPGRLHVLIEVRNDLIETAEDQARWGVRLAQMLEAAATSADL	not soluble
MGSDKIHHHHHHMTDPDIGDSQDHANIISILQDLGLTENESRVYILLLEYGSMAAQDILRYLPLRQPQLYDITSSLERKGFINVLLGRPKKYEAIDPEAVVEAREQILSRNRRYFLTWANRAMETRRETTALINAKNIRSVINNSIDLINETEKTLEIETTQELFAYIREPILRKIREGCRVEILFFGTDVDLEKVQNQFTDLDVDVRYVSPGQFFTVISDEKNSVFMPRSVAMNTDIERYGYVIRDKDMSWFITHNFFVGWYRGNRIKDHSVVAPYTYHSQRILISDLKRIFDQKGRVHGVLEGIVRSTGDRFTSEGEISEINSDTEIINFVFKTDRGEYTVGGYDSQIEDIVMKSFTVASFG	not soluble
MGSDKIHHHHHHMTDSPHTIRNPAAPLAERLRPRTLDDVVGQSHLLGPGKPLRLAFESGKPHSMILWGPPGSGKTTLARLMAHAFDAEFIAISAVLSGVKDIREAIERAQITLQRTGRATLLFVDEVHRFNKAQQDAFLPHVEQGLITFIGATTENPSFEVNGALLSRAQVYALKALTDQELHQLFERARSIAMLDLEFENTAIELLIGFADGDARRLLNLLEQVQNAAETEEIIKIDADYLSRVLARNVRRFDKGGDAFYDQISALHKSIRGSSPDAALYWLCRMLDGGADPRYIGRRLVRTATEDIGLADPRALTLALNACEVFERLGSPEGELALAQATLYLACAPKSNAAYVAYKQARAFIKEDISRPVPIHLRNAPTRLMREMGHGAAYRYAHDESESYAAGENYFPDNILAVQFYRPTTHGLEAKIGEKLAYLRSLDEKTGKKRN	not soluble
MGSDKIHHHHHHMTDSTIDALNKKLDRLIEAVGRLAPPPVPETDLAEADCFVWQADPGYLEPVRKVNRVDIGLIRGVDRVRDILVDNTERFAAGFAANNVLLWGARGMGKSSLVKAVHAEINAKSKSQKAKSDLPLKLIEIHREDIDTLPKLMGLLKAAPFRVILFCDDLSFDHDDTSYKSLKAALEGGVEGRPANVIFYATSNRRHLLPRDMIDNERSTAINPSEAVEEKVSLSDRFGLWLGFHKCSQDEYLEMVNAYASHHGLDIDPEQLRAEALEWATTRGSRSGRVAWQFTQDLAGRLGKPLKD	not soluble
